Measurements reported in paper PMC6949223.

How the values were obtained:
[1] = Matrigel Transwell invasion, MDA-MB-231 and BT-549 rescue lines; settings: glycan lost; control: SGK196-WT re-expressed in shSGK196 cells
[2] = protein stability in MDA-MB-231 and BT-549 (Fig. S2C); settings: glycan lost; control: SGK196-WT
[3] = Transwell migration, MDA-MB-231 and BT-549 rescue lines; settings: glycan lost; control: SGK196-WT re-expressed in shSGK196 cells
[4] = anti-HA immunofluorescence, MDA-MB-231 and BT-549; settings: glycan lost; control: SGK196-WT

B1: SGK196: SGK196-4NQ (protein)
parent chain: MEKQPQNSRRGLAPREVPPAVGLLLIMALMNTLLYLCLDHFFIAPRQSTVDPTHCPYGHFRIGQMKNCSPWLSCEELRTEVRQLKRVGEGAVKRVFLSEWKEHKVALSQLTSLEMKDDFLHGLQMLKSLQGTHVVTLLGYCEDDNTMLTEYHPLGSLSNLEETLNLSKYQNVNTWQHRLELAMDYVSIINYLHHSPVGTRVMCDSNDLPKTLSQYLLTSNFSILANDLDALPLVNHSSGMLVKCGHRELHGDFVAPEQLWPYGEDVPFHDDLMPSYDEKIDIWKIPDISSFLLGHIEGSDMVRFHLFDIHKACKSQTPSERPTAQDVLETYQKVLDTLRDAMMSQAREML
other: suppression of cell invasion [1]: decreases | degradation_or_half_life [2]: no change | other: suppression of cell migration [3]: decreases | localisation_or_trafficking [4]: no change
